The chains are these.
B1: Compound 299 (peptide)
peptide: {DOTA-Ahx}-[dY][d4Pal]NTF[azaGly]L[Apc(OMe)][4Pal]-NH2
B2: Compound 311 (peptide)
peptide: {DOTA-Ahx}-[dY][Hyp]NTF[azaGly]L[Api(1-amidino)]W-NH2
SMILES: CC(C)C[C@H](NC(=O)NNC(=O)[C@H](Cc1ccccc1)NC(=O)[C@@H](NC(=O)[C@H](CC(N)=O)NC(=O)[C@@H]1C[C@@H](O)CN1C(=O)[C@@H](Cc1ccc(O)cc1)NC(=O)CCCCCNC(=O)CN1CCN(CC(=O)O)CCN(CC(=O)O)CCN(CC(=O)O)CC1)[C@@H](C)O)C(=O)NC1(C(=O)N[C@@H](Cc2c[nH]c3ccccc23)C(N)=O)CCN(C(=N)N)CC1
B3: Compound 337 (peptide)
peptide: {DOTA-Ahx}-[dK](Butanoyl(4-(4-I-phenyl)))[Ahx][dY][d2Nal]NTF[azaGly]L[Api(1-amidino)]W-NH2
SMILES: CC(C)C[C@H](NC(=O)NNC(=O)[C@H](Cc1ccccc1)NC(=O)[C@@H](NC(=O)[C@H](CC(N)=O)NC(=O)[C@@H](Cc1ccc2ccccc2c1)NC(=O)[C@@H](Cc1ccc(O)cc1)NC(=O)CCCCCNC(=O)[C@@H](CCCCNC(=O)CCCc1ccc(I)cc1)NC(=O)CCCCCNC(=O)CN1CCN(CC(=O)O)CCN(CC(=O)O)CCN(CC(=O)O)CC1)[C@@H](C)O)C(=O)NC1(C(=O)N[C@@H](Cc2c[nH]c3ccccc23)C(N)=O)CCN(C(=N)N)CC1
B4: Compound 301 (peptide)
peptide: {DOTA-Ahx}-[d2Nal]NTF[azaGly]L[Api(1-amidino)]F-NH2
SMILES: CC(C)C[C@H](NC(=O)NNC(=O)[C@H](Cc1ccccc1)NC(=O)[C@@H](NC(=O)[C@H](CC(N)=O)NC(=O)[C@@H](Cc1ccc2ccccc2c1)NC(=O)CCCCCNC(=O)CN1CCN(CC(=O)O)CCN(CC(=O)O)CCN(CC(=O)O)CC1)[C@@H](C)O)C(=O)NC1(C(=O)N[C@@H](Cc2ccccc2)C(N)=O)CCN(C(=N)N)CC1
B5: Compound 300 (peptide)
peptide: {DOTA-Ahx}-[dY][d2Nal]NTF[azaGly]L[Api(1-amidino)]F-NH2
SMILES: CC(C)C[C@H](NC(=O)NNC(=O)[C@H](Cc1ccccc1)NC(=O)[C@@H](NC(=O)[C@H](CC(N)=O)NC(=O)[C@@H](Cc1ccc2ccccc2c1)NC(=O)[C@@H](Cc1ccc(O)cc1)NC(=O)CCCCCNC(=O)CN1CCN(CC(=O)O)CCN(CC(=O)O)CCN(CC(=O)O)CC1)[C@@H](C)O)C(=O)NC1(C(=O)N[C@@H](Cc2ccccc2)C(N)=O)CCN(C(=N)N)CC1
B6: Compound 310 (peptide)
peptide: {DOTA-Ahx}-[dK](Butanoyl(4-(4-I-phenyl)))[dY][d2Nal]NTF[azaGly]L[Api(1-amidino)]F-NH2
SMILES: CC(C)C[C@H](NC(=O)NNC(=O)[C@H](Cc1ccccc1)NC(=O)[C@@H](NC(=O)[C@H](CC(N)=O)NC(=O)[C@@H](Cc1ccc2ccccc2c1)NC(=O)[C@@H](Cc1ccc(O)cc1)NC(=O)[C@@H](CCCCNC(=O)CCCc1ccc(I)cc1)NC(=O)CCCCCNC(=O)CN1CCN(CC(=O)O)CCN(CC(=O)O)CCN(CC(=O)O)CC1)[C@@H](C)O)C(=O)NC1(C(=O)N[C@@H](Cc2ccccc2)C(N)=O)CCN(C(=N)N)CC1
B7: Compound 269 (peptide)
peptide: {DOTA-Ahx}-[dY][d2Nal]NTF[azaGly]L[Api(1-amidino)]W-NH2
B8: Compound 339 (peptide)
peptide: {DOTA-Ahx}-[dY][d2Nal]NTF[azaGly]L[Pip][dW]-NH2
B9: Compound 317 (peptide)
peptide: {DOTA-Ahx}-[dY][d2Nal]NT[Cha][azaGly]L[Api(1-amidino)]W-NH2
SMILES: CC(C)C[C@H](NC(=O)NNC(=O)[C@H](CC1CCCCC1)NC(=O)[C@@H](NC(=O)[C@H](CC(N)=O)NC(=O)[C@@H](Cc1ccc2ccccc2c1)NC(=O)[C@@H](Cc1ccc(O)cc1)NC(=O)CCCCCNC(=O)CN1CCN(CC(=O)O)CCN(CC(=O)O)CCN(CC(=O)O)CC1)[C@@H](C)O)C(=O)NC1(C(=O)N[C@@H](Cc2c[nH]c3ccccc23)C(N)=O)CCN(C(=N)N)CC1
B10: Compound 309 (peptide)
peptide: {DOTA-Ahx}-[dK](4‑(p-tolyl)butanoyl)[dY][d2Nal]NTF[azaGly]L[Api(1-amidino)]F-NH2
B11: Compound 374 (peptide)
peptide: {DOTA-Ahx}-[dY][d2Nal]NTF[azaGly]L[4‑amino‑1‑(octylglycyl)piperidine‑4‑carboxylic acid][dW]-NH2
B12: Compound 371 (peptide)
peptide: {DOTA-Ahx}-[dY][d2Nal]NTF[azaGly]L[4‑amino‑1‑((4-iodobenzyl)glycyl)piperidine‑4‑carboxylic acid][dW]-NH2
B13: Compound 222 (peptide)
peptide: {DOTA-Ahx}-[dY][3‑(9-anthryl)alanine]NTF[azaGly]L[Api(1-amidino)][4Pal]-NH2
B14: Compound 13 (peptide)
peptide: {DOTA-Ahx}-[dA][dA][dA][dA][dA]F[azaGly]L[X2]W-NH2
SMILES: Cc1ccc(CNCC(=O)N2CCC(NC(=O)[C@H](CC(C)C)NC(=O)NNC(=O)[C@H](Cc3ccccc3)NC(=O)[C@@H](C)NC(=O)[C@@H](C)NC(=O)[C@@H](C)NC(=O)[C@@H](C)NC(=O)[C@@H](C)NC(=O)CCCCCNC(=O)CN3CCN(CC(=O)O)CCN(CC(=O)O)CCN(CC(=O)O)CC3)(C(=O)N[C@@H](Cc3c[nH]c4ccccc34)C(N)=O)CC2)cc1F
B15: Compound 231 (peptide)
peptide: {DOTA-trans‑4‑(aminomethyl)cyclohexane‑1‑carboxylic acid}-[D‑3‑aminopentanedioic acid]NT[Phe(3-F)][azaGly]L[X2][4Pal]-NH2
B16: Compound 230 (peptide)
peptide: {DOTA}-[d(β3hD)]NT[Phe(3-F)][azaGly]L[X2][4Pal]-NH2
B17: Compound 226 (peptide)
peptide: Octanoyl-K(DOTA)NTF[azaGly]L[Api(1-amidino)][4Pal]-NH2
SMILES: CCCCCCCC(=O)N[C@@H](CCCCNC(=O)CN1CCN(CC(=O)O)CCN(CC(=O)O)CCN(CC(=O)O)CC1)C(=O)N[C@@H](CC(N)=O)C(=O)N[C@H](C(=O)N[C@@H](Cc1ccccc1)C(=O)NNC(=O)N[C@@H](CC(C)C)C(=O)NC1(C(=O)N[C@@H](Cc2ccncc2)C(N)=O)CCN(C(=N)N)CC1)[C@@H](C)O
B18: Compound 260 (peptide)
peptide: {DOTA-4Amb}-F[azaGly][dL][X2]W-NH2
SMILES: Cc1ccc(CNCC(=O)N2CCC(NC(=O)[C@@H](CC(C)C)NC(=O)NNC(=O)[C@H](Cc3ccccc3)NC(=O)c3ccc(CNC(=O)CN4CCN(CC(=O)O)CCN(CC(=O)O)CCN(CC(=O)O)CC4)cc3)(C(=O)N[C@@H](Cc3c[nH]c4ccccc34)C(N)=O)CC2)cc1F
B19: Compound 18 (peptide)
peptide: {DOTA}-[dN][dN]F[azaGly]L[X2]W-NH2
SMILES: Cc1ccc(CNCC(=O)N2CCC(NC(=O)[C@H](CC(C)C)NC(=O)NNC(=O)[C@H](Cc3ccccc3)NC(=O)[C@@H](CC(N)=O)NC(=O)[C@@H](CC(N)=O)NC(=O)CN3CCN(CC(=O)O)CCN(CC(=O)O)CCN(CC(=O)O)CC3)(C(=O)N[C@@H](Cc3c[nH]c4ccccc34)C(N)=O)CC2)cc1F
B20: Compound 14 (peptide)
peptide: {DOTA}-[βAla][dN][dN][dN][dN][dN]F[azaGly]L[X2]W-NH2
SMILES: Cc1ccc(CNCC(=O)N2CCC(NC(=O)[C@H](CC(C)C)NC(=O)NNC(=O)[C@H](Cc3ccccc3)NC(=O)[C@@H](CC(N)=O)NC(=O)[C@@H](CC(N)=O)NC(=O)[C@@H](CC(N)=O)NC(=O)[C@@H](CC(N)=O)NC(=O)[C@@H](CC(N)=O)NC(=O)CCNC(=O)CN3CCN(CC(=O)O)CCN(CC(=O)O)CCN(CC(=O)O)CC3)(C(=O)N[C@@H](Cc3c[nH]c4ccccc34)C(N)=O)CC2)cc1F
B21: Compound 7 (peptide)
peptide: {DOTA-Ahx}-F[azaGly]L[4‑amino‑1‑(4-(p-tolyl)butanoyl)piperidine‑4‑carboxylic acid]W-NH2
B22: Compound 171 (peptide)
peptide: {DOTA}-ENT[Phe(3-F)][azaGly]L[X2][4Pal]-NH2
SMILES: Cc1ccc(CNCC(=O)N2CCC(NC(=O)[C@H](CC(C)C)NC(=O)NNC(=O)[C@H](Cc3cccc(F)c3)NC(=O)[C@@H](NC(=O)[C@H](CC(N)=O)NC(=O)[C@H](CCC(=O)O)NC(=O)CN3CCN(CC(=O)O)CCN(CC(=O)O)CCN(CC(=O)O)CC3)[C@@H](C)O)(C(=O)N[C@@H](Cc3ccncc3)C(N)=O)CC2)cc1F
B23: Compound 12 (peptide)
peptide: {DOTA-Ahx}-F[Sar]L[X2]W-NH2
SMILES: Cc1ccc(CNCC(=O)N2CCC(NC(=O)[C@H](CC(C)C)NC(=O)CN(C)C(=O)[C@H](Cc3ccccc3)NC(=O)CCCCCNC(=O)CN3CCN(CC(=O)O)CCN(CC(=O)O)CCN(CC(=O)O)CC3)(C(=O)N[C@@H](Cc3c[nH]c4ccccc34)C(N)=O)CC2)cc1F

This is an account of results in patent US20250312499A1, “KISSPEPTIN RECEPTOR (KISS1R) TARGETED THERAPEUTICS AND USES THEREOF” (priority 2024, published 2025).

Numbered stars: 1 amine (or outer) side, 2 acyl side, 3 side chain; on linkers, the order of the positions; unused ones are H or OH. Square brackets hold non-standard residues; d marks the D form. * marks the point of attachment. X2 = 4‑amino‑1‑((3-fluoro-4-methylbenzyl)glycyl)piperidine‑4‑carboxylic acid, Cc1ccc(CN(CC(=O)N2CCC(N[*:1])(C(=O)[*:2])CC2)[*:3])cc1F; DOTA = O=C(O)CN1CCN(CC(=O)O)CCN(CC(=O)*)CCN(CC(=O)O)CC1; Butanoyl(4-(4-I-phenyl)) = O=C(CCCc1ccc(I)cc1)*; Api(1-amidino) = N=C(N)N1CCC(N)(C(=O)O)CC1; Phe(3-F) = N[C@@H](Cc1cccc(F)c1)C(=O)O; d2Nal = N[C@H](Cc1ccc2ccccc2c1)C(=O)O; Hyp = O=C(O)[C@@H]1C[C@@H](O)CN1; 4Pal = N[C@@H](Cc1ccncc1)C(=O)O; d4Pal = N[C@H](Cc1ccncc1)C(=O)O; Cha = N[C@@H](CC1CCCCC1)C(=O)O; d(β3hD) = NC(CC(=O)O)CC(=O)O; 4Amb = NCc1ccc(C(=O)O)cc1; Pip = O=C(O)[C@@H]1CCCCN1; Octanoyl = CCCCCCCC(=O)*; Ahx = NCCCCCC(=O)O; azaGly = NNC(=O)O; βAla = NCCC(=O)O; Sar = CNCC(=O)O

For one test, the target named is human kisspeptin receptor (KISS1R) (human) (UniProt Q969F8). As to the kind of experiment: radioligand competition, hKISS1R membranes; legend: A is <10 nM.
Sequence of human kisspeptin receptor (KISS1R) (human) (Q969F8 whole entry): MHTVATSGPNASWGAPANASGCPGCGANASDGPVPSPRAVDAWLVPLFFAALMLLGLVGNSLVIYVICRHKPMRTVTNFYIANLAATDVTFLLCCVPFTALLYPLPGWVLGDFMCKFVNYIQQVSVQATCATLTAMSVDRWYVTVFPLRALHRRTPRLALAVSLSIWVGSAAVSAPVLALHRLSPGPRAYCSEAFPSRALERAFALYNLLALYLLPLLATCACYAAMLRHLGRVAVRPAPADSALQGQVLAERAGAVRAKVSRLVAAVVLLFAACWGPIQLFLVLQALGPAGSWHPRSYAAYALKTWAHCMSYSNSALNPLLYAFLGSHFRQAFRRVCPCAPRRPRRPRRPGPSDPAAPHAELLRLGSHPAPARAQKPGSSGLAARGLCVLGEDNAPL
Regarding B1, the Ki was under 0.01 µM.

In turn, B2 came in with a Ki of under 0.01 µM.

B3 yielded an inhibition constant (Ki) of under 0.01 µM.

B4: the inhibitory constant (Ki) is under 0.01 µM.

B5 displayed an inhibition constant Ki of under 0.01 µM.

In turn, B6 had a Ki of under 0.01 µM.

Take B7: the inhibition constant (Ki) is under 0.01 µM.

In the case of B8, the Ki was under 0.01 µM.

In turn, B9 gave a Ki of under 0.01 µM.

As for B10, the Ki was under 0.01 µM.

Turning to B11, the Ki was under 0.01 µM.

Consider B12, for which the inhibition constant Ki is under 0.01 µM.

Turning to B13, the Ki is under 0.01 µM.

In another test the target is human kisspeptin receptor (KISS1R) (human), Q969F8. As to the kind of experiment: radioligand competition, hKISS1R membranes; legend: B is 10-100 nM.
Sequence of human kisspeptin receptor (KISS1R) (human), Q969F8 (Q969F8 whole entry): as above
On to B14, for which the Ki was 0.01 to 0.1 µM.

With B15, the inhibitory constant (Ki) was 0.01 to 0.1 µM.

Molecule B16 registered a Ki of 0.01 to 0.1 µM.

Molecule B17 came in with an inhibition constant (Ki) of 0.01 to 0.1 µM.

The molecule B18 returned a Ki of 0.01 to 0.1 µM.

The molecule B19 yielded a Ki of 0.01 to 0.1 µM.

With B20, the inhibition constant (Ki) lay in the range of 0.01 to 0.1 µM.

On to B21, for which the Ki lay in the range of 0.01 to 0.1 µM.

On to B22, for which the Ki was 0.01 to 0.1 µM.

As for B23, the inhibitory constant (Ki) was in the range of 0.01 to 0.1 µM.
